Amyloid nucleation score data for 140 substances are collected here from the supplement of paper PMC12042874.

± gives the uncertainty stated by the source.

This data set is described as follows: amyloid nucleation score (Sup35N fusion, yeast selection) (log enrichment); library NNK2; higher = more nucleation; inactive = no reads after selection. The method, boiled down: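 On medium lacking adenine and uracil, psi-negative yeast expressing peptides of 20 random codons fused to Sup35N were grown 7 days at 30°C after a 24-hour induction with 100 μM copper sulfate. Illumina sequencing of input and output plasmid inserts gave the reads, and sequences under 100 input reads were excluded. The nucleation score is the DiMSum log enrichment of output over input reads, centred on the mode score of non-aggregating sequences.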
Substance LRTSSSYSFLEYIRS displayed an amyloid nucleation score of -1.08 ± 1.

Substance VMCFNTMKC showed an amyloid nucleation score of 7.386 ± 0.044.

LNVGPQGYMCGSPLYDHCG registered an amyloid nucleation score of 2.73 ± 0.076.

For the substance RHNKNRSVCSYRSKYAKKYV, the amyloid nucleation score is -0.208 ± 0.74.

RTGRPSHDFRYGKQRFMVRP gave an amyloid nucleation score of 0.736 ± 0.74.

On to TRLLIVDFNIFSIEIVHLMS, for which the amyloid nucleation score came to 2.41 ± 0.071.

Regarding KRCYCIKGVCNLNGISPKVK, the amyloid nucleation score is -0.468 ± 0.36.

For the substance YIMSFRY, the amyloid nucleation score was -0.592 ± 0.79.

Consider SSYKTLPAMLVARMLINYTV, for which the amyloid nucleation score was -1.02 ± 0.45.

As to YPKSLV, the amyloid nucleation score was -0.698 ± 1.1.

Substance YLSAAVKTEVV displayed an amyloid nucleation score of 0.619 ± 0.37.

Regarding PDYYYMTTLLYCRSSKSLKR, the amyloid nucleation score was -1.46 ± 1.1.

On to FNVSVGMMNFRMERLGI, for which the amyloid nucleation score is -0.819 ± 0.42.

On to TCIDEGEVVLDFFNVIKVLC, for which the amyloid nucleation score result is “inactive”.

As for GVASMSRRARSHKMGGWMGR, the amyloid nucleation score came to 1.05 ± 0.41.

The substance WLLVDYAASCRGKWCHEMHG registered an amyloid nucleation score of 0.284 ± 0.19.

RGFCYNIT showed an amyloid nucleation score of 0.305 ± 0.37.

ATYINLVINSKSARLFLICG gave an amyloid nucleation score of 4.732 ± 0.036.

Turning to WVNIYADLRLKVVAGNCCNV, the amyloid nucleation score was found to be 3.38 ± 0.12.

Consider ICGGTSESGRYRKAGQGV, for which the amyloid nucleation score was 1.07 ± 0.15.

As to SLNRTTSSLVRW, the amyloid nucleation score is 6.029 ± 0.037.

For the substance NPEDPQSMLLVVGCVEKN, the amyloid nucleation score was found to be 0.214 ± 0.54.

LRKPSTIFEHDAKNSRV displayed an amyloid nucleation score of -0.67 ± 0.79.

In the case of LGLCEVNMFNIRHFTLRSCY, the amyloid nucleation score is 0.219 ± 1.

With QKGHSRLQPWSLSPYVYRPL, the amyloid nucleation score is 0.556 ± 0.42.

Consider PEWFGR, for which the amyloid nucleation score worked out at 0.588 ± 0.23.

Substance CTRSFVTQSDEDSPIGSDR yielded an amyloid nucleation score of -1.39 ± 0.38.

The substance ESYIWMLRGHMLCKDEVMNV had an amyloid nucleation score of -0.611 ± 0.74.

On to SKGIDSEIHKRHRVRD, for which the amyloid nucleation score was -0.206 ± 0.54.

The substance SSYLGMENQRLMRKESGCCL displayed an amyloid nucleation score of 0.09 ± 0.41.

In turn, DHRRCDSMRTDC registered an amyloid nucleation score of 0.098 ± 1.

In turn, IESPLIEFTIDCW showed an amyloid nucleation score of -0.025 ± 0.79.

For the substance QRFRHRKTQISVFS, the amyloid nucleation score is -0.876 ± 1.1.

Consider LCLDIMFVSNI, for which the amyloid nucleation score was -0.696 ± 1.

In the case of NLSWLVNWMEYVRGRLW, the amyloid nucleation score is -0.56 ± 0.4.

Substance IGQRLCYCVCWRSSCGVVWQ came in with an amyloid nucleation score of 1.46 ± 0.36.

In turn, CVLVFIVNKTYA came in with an amyloid nucleation score of 4.13 ± 0.06.

Substance MGQLDGKACSICRSLVIIVY had an amyloid nucleation score of 2.23 ± 0.073.

Take ILSLMLRSVWRSVLLVLQ: the amyloid nucleation score result is “inactive”.

DMHCFSEGRHGGLTCAGCLR registered an amyloid nucleation score of 1.1 ± 0.19.

The substance NWLKYFYVSDFQWWKGYPHV gave an amyloid nucleation score of -0.067 ± 0.36.

Take CFRFLGREECKLTFGSDEMI: the amyloid nucleation score result is “inactive”.

The substance RVGDEFVGCRWVSRIANSHS registered an amyloid nucleation score of 2.23 ± 0.14.

For the substance MIMEQSNNISNCLFVMQGPK, the amyloid nucleation score was 7.143 ± 0.07.

Turning to MVKLFSLSTS, the amyloid nucleation score was -0.533 ± 0.2.

Substance YLVYKMNNGCLCNIFAPVTE gave an amyloid nucleation score of 8.303 ± 0.064.

In turn, ALGHIQLKLHCWDYGKRCAS yielded an amyloid nucleation score of 0.623 ± 0.25.

For WRALPKYGYCLSLGVYEETR, the amyloid nucleation score is -0.102 ± 0.55.

Take FYHCFDVLSSQMYYLKLLST: the amyloid nucleation score result was “inactive”.

The substance AVSFRFIGVYRGM showed an amyloid nucleation score of 3.95 ± 0.12.

YVAAGLWVMWTGALKMRQAG gave an amyloid nucleation score of 0.954 ± 0.66.

Substance LLSPYMLRLMV registered an amyloid nucleation score of -0.299 ± 0.79.

As for VIYLHVYGCVNLVSVLVHSL, the amyloid nucleation score is 1.87 ± 0.12.

Take NWWYSRSRPHMGSSISFSEV: the amyloid nucleation score was -0.37 ± 0.41.

YQFTGFLLGRVIASIIRHGV returned an amyloid nucleation score of 0.023 ± 0.45.

DSGEPWILMFLDGYLSAMRL had an amyloid nucleation score of -0.513 ± 0.61.

For the substance VNIWAVNICC, the amyloid nucleation score is 7.8 ± 0.048.

As to VSAGVTREGLEVGTVFGP, the amyloid nucleation score is 0.379 ± 0.44.

In turn, SVRMVFIGNLSRGNWSALWS registered an amyloid nucleation score of 7.627 ± 0.037.

With VYGPTVNFK, the amyloid nucleation score was found to be 0.761 ± 0.25.

For RFKWK, the amyloid nucleation score amounted to 3.67 ± 0.11.

On to EFRNLT, for which the amyloid nucleation score is -0.213 ± 0.18.

Substance CRMYRSRCNCMCDRVVEMWG displayed an amyloid nucleation score of -0.407 ± 0.4.

Substance LVRVGDFG returned an amyloid nucleation score of -0.267 ± 0.54.

For FLLPGCSLIFFYCSGCSMV, the amyloid nucleation score was found to be 5.014 ± 0.031.

FDFLSSFPRLWVRVEGIPCF showed an amyloid nucleation score of -0.994 ± 0.55.

Regarding MRSFGPIFSVLL, the amyloid nucleation score was -0.067 ± 0.34.

In turn, NCKMVMIGCDRNYL returned an amyloid nucleation score of -1.37 ± 1.1.

RLRIMYSTLLATGMV: the amyloid nucleation score came to 0.178 ± 0.5.

KVFSPHRNWWVI returned an amyloid nucleation score of 0.553 ± 0.57.

Take FRGSAFS: the amyloid nucleation score worked out at 7.173 ± 0.051.

QLNFYNQTQCVLGEVTTLN showed an amyloid nucleation score of -0.476 ± 0.36.

SACIILI: the amyloid nucleation score stood at 1.65 ± 0.15.

Regarding MVLIYRLCQSLRLRHGVGVK, the amyloid nucleation score amounted to 4.33 ± 0.1.

For the substance GFDLAWSWIPFSRWFALLVN, the amyloid nucleation score is -0.486 ± 0.56.

For the substance CLGFGRSSPTGYNTCVVRNY, the amyloid nucleation score is -0.493 ± 1.1.

For the substance RDLLIGDDI, the amyloid nucleation score was -0.983 ± 0.44.

Substance LGMCRGLRLIMMDWFGSDKM had an amyloid nucleation score of 2.35 ± 0.075.

ENCFVSICVGSATLGMCSSG: the amyloid nucleation score was 8.02 ± 0.034.

Substance YCIKLRRYQNDKFWFNYTQV showed an amyloid nucleation score of 4.35 ± 0.086.

RTCTFVCRGM had an amyloid nucleation score of 2.86 ± 0.1.

WFYNVATYTHVAANTRVMKC returned an amyloid nucleation score of 0.231 ± 0.44.

Turning to DSFVIAVLQIIPYTLTQHSK, the amyloid nucleation score was 1.7 ± 0.085.

Consider DPVTMLYSF, for which the amyloid nucleation score worked out at 0.179 ± 0.32.

The substance LYLYPAMFVSWLSGLPTRFC displayed an amyloid nucleation score of -0.406 ± 1.1.

In the case of MMVYKGMPVLPCEYRVLY, the amyloid nucleation score was -0.199 ± 0.36.

In turn, CVFNTFMNDKIIGRLWPTDW gave an amyloid nucleation score of 2.91 ± 0.15.

RPNLLSDILPRGLMAKSMHF registered an amyloid nucleation score of 0.107 ± 0.79.

Turning to NSNFRLTCTFSSMHYKLARG, the amyloid nucleation score turned out to be 2.9 ± 0.21.

With DIIAPEKNFIIYY, the amyloid nucleation score entry is “inactive”.

For FSFEMDISLWALWGYMRSDL, the amyloid nucleation score result is “inactive”.

As for LNDHNFLCPLTYKVRRLYNN, the amyloid nucleation score was -1.53 ± 0.53.

The substance EMVQVVSAQGKTKL returned an amyloid nucleation score of 8.461 ± 0.061.

Consider SMLSSMYFKFPL, for which the amyloid nucleation score came to 2.07 ± 0.16.

NRCFEGFAVARFDAGRV yielded an amyloid nucleation score of -0.378 ± 1.

In the case of NGFMVSFV, the amyloid nucleation score was -1.39 ± 0.41.

In turn, GFLNLCRSTSRELMCEMYSA yielded an amyloid nucleation score of -0.651 ± 1.1.

MHPVANSGNSEHMFSMLY returned an amyloid nucleation score of 3.48 ± 0.09.

The substance SYWNLRQVVSIDDCMQSTFN came in with an amyloid nucleation score of 0.058 ± 1.

Take FHRNMMVLQCIRRVL: the amyloid nucleation score was found to be 0.016 ± 1.1.

Regarding IDVSKCVLGKDSSLRGTNTR, the amyloid nucleation score is -0.595 ± 0.28.

RASARLVCTFYVLTERG: the amyloid nucleation score worked out at 4.17 ± 0.064.

With LLNFMCIYYEWFQRSAEHAT, the amyloid nucleation score was -0.605 ± 0.76.

As to TVRRTRFLNNISFNGFNVFV, the amyloid nucleation score was determined as 7.383 ± 0.054.

Regarding KLPFICINRGWWLVGRINSS, the amyloid nucleation score is 3.07 ± 0.18.

MIISTVMSGMNANSLVVWAY gave an amyloid nucleation score of 0.375 ± 0.21.

LAHGPWGVSGDSV displayed an amyloid nucleation score of 0.019 ± 1.1.

For YITFSDRLWTLLLWCRILWL, the amyloid nucleation score was -0.002 ± 1.

As for GLRELS, the amyloid nucleation score is -0.874 ± 0.55.

On to HLWSLRGPIAFIENRLSVWI, for which the amyloid nucleation score was 0.605 ± 0.51.

The substance IYKILLLLAGRRGFDCLVFS registered an amyloid nucleation score of -0.926 ± 0.74.

The substance GEINENGKLCGGRAQGTGTY gave an amyloid nucleation score of -0.392 ± 0.63.

In turn, IPNSGRGWSPAWPKMALTYS had an amyloid nucleation score of 0.746 ± 0.24.

In turn, DDDRPDEAYEYDVSGF returned an amyloid nucleation score of -1.03 ± 0.54.

In the case of FKILFLAHRLTGLFKSSTGF, the amyloid nucleation score entry is “inactive”.

Take VRRMRG: the amyloid nucleation score amounted to 1.18 ± 0.42.

Substance RSCFPCSCK showed an amyloid nucleation score of 0.472 ± 0.31.

In turn, SRLGVFMYANVLWGKQSRND registered an amyloid nucleation score of 6.267 ± 0.058.

RRPIGDW: the amyloid nucleation score came out at 0.169 ± 0.36.

DVETL had an amyloid nucleation score of -1.24 ± 0.41.

With QLFFRYYCEAGDVCIFGHIA, the amyloid nucleation score was 3.32 ± 0.099.

HLASFFSSVSYSSDLAYSGT: the amyloid nucleation score is -1.02 ± 0.78.

Turning to LVAHPLYGSTKWGN, the amyloid nucleation score is -0.596 ± 0.79.

As for LAVHYHILRERTALCLGDHQ, the amyloid nucleation score is -0.127 ± 1.1.

In turn, GVPLLLRMTCSLCRIAFQE registered an amyloid nucleation score of 4.28 ± 0.069.

Substance VERFLPVCFIPLISKRWTMY showed an amyloid nucleation score of 0.283 ± 0.54.

With RVTSEIWGCGGGFREECIKE, the amyloid nucleation score came out at 0.143 ± 0.5.

NGVQKVVCQGTRLGCVLGLD came in with an amyloid nucleation score of 0.131 ± 0.45.

As for CLSDNC, the amyloid nucleation score is -0.13 ± 0.74.

The substance SYYLALYLMEYFYLDDARLN showed an amyloid nucleation score of -1.2 ± 1.

As for LGYTSFYSFILKEGMFTAMG, the amyloid nucleation score stood at 0.434 ± 0.27.

With LSAKWCTECNLAASRRLNIN, the amyloid nucleation score was 0.034 ± 0.32.

FHSRAEICLIWNHIVQDWRN registered an amyloid nucleation score of 3.58 ± 0.071.

RSPCIWLWFLNAACHKCVLM gave an amyloid nucleation score of 0.752 ± 0.43.

WQSSSILIASSCVRSPGLPV came in with an amyloid nucleation score of 0.27 ± 0.46.

Consider ACTVWIMLRDSCWKARDRSG, for which the amyloid nucleation score was determined as 2.95 ± 0.082.

For the substance NLVVCGNISGCLCYDYSFGK, the amyloid nucleation score was 8.187 ± 0.032.

In turn, VRNSCSTLLYASVESVFWI returned an amyloid nucleation score of 3.28 ± 0.048.

Substance VCNFSTLELVVEDGSKAYRG gave an amyloid nucleation score of -0.079 ± 0.3.

SFTAHTSIHASNLYTDLLLC returned an amyloid nucleation score of 3.41 ± 0.063.
